Values joined by “and” are separate entries in the source; they are usually repeats but may differ in a detail not shown here. Equal values may be shown once.
B1: peroxiredoxin 6 (enzyme, bovine (endogenous in bull sperm), UniProt O77834 1-224, looked up)
chain: MPGGLLLGDEAPNFEANTTIGRIRFHDYLGDSWGILFSHPRDFTPVCTTELGRAAKLAPEFAKRNVKMIALSIDSVEDHLAWSKDINAYNGEEPTEKLPFPIIDDKNRDLAIQLGMLDPAEKDEKGMPVTARVVFIFGPDKKLKLSILYPATTGRNFDEILRVIISLQLTAEKRVATPVDWKNGDSVMVLPTIPEEEAKKLFPKGVFTKELPSGKKYLRYTPQP
notes: peroxiredoxin 6 (PRDX6), bovine, endogenous in bull sperm; runs as a single 25 kDa band in standard SDS-PAGE; The oligomers are disulfide-linked, as they appear only in non-reducing SDS-PAGE; also called PRDX6; source: endogenous, bull sperm lysate (native protein extraction; fresh or cryopreserved sperm)
B2: peroxiredoxin 5 (enzyme, Bos taurus (endogenous in bull sperm), UniProt Q9BGI1 58-219, looked up)
chain: MAPIKVGDAIPSVEVFEKEPGNKVNLAELFKGKKGVLFGLPGAFTPGCSKTHLPGFVEQADALKAKGIQVVACLTVNDVFVTEEWARAHKAEGKVRLLADPSGTFGKETDLLLDDSLLFLFGNHRLKRFSMVIEDGIVKSLNVEPDGTGLTCSLAPNILSQL
notes: peroxiredoxin 5 (PRDX5) from Bos taurus, endogenous in bull sperm; runs as a single 17.5 kDa band in standard SDS-PAGE; The oligomers are disulfide-linked, as they appear only in non-reducing SDS-PAGE; also called PRDX5; source: endogenous, bull sperm lysate (native protein extraction; fresh or cryopreserved sperm)

Target: the molecule itself
Assay: non-reducing SDS-PAGE with Western blot; native protein extracts of fresh or cryopreserved bull sperm, 30 ug protein, Laemmli buffer with 1.275% SDS and without 2-mercaptoethanol, 12% gels; compared with standard reducing SDS-PAGE; oligomer bands stronger after cryopreservation

Row | Protein | stoichiometry N
1 | B1 | 2 and 6
2 | B2 | 6
